Reference: US20240181040A1
Like-named read-outs stand apart in the source and are kept apart here.

Assays:
[1] = molecular target: BG505 T332N gp160 on pseudo-typed virus (HIV-1 clade A, BG505)
[2] = molecular target: BG505 SOSIP.664 envelope trimer protein (HIV-1 clade A, BG505); experiment: BLI, antibody on anti-human Fc biosensor, Env in solution, global fit
[3] = molecular target: clade C HIV-1 1086.c ENV SOSIP trimer (HIV-1 clade C, 1086.c); experiment: as above
[4] = molecular target: BG505 SOSIP.664 envelope trimer protein (HIV-1 clade A, BG505); experiment: BLI, antibody on anti-human Fc biosensor, Env protein as analyte
[5] = molecular target: clade C HIV-1 1086.c ENV SOSIP trimer (HIV-1 clade C, 1086.c); experiment: as above
[6] = molecular target: 1086.c gp160 wt on pseudo-typed virus (HIV-1 clade C, 1086.c)
[7] = molecular target: clade C HIV-1 1086.c ENV SOSIP trimer (HIV-1 clade C, 1086.c); experiment: BLI, antibody on anti-human Fc biosensor, Env protein as analyte; the sheet has this in the 1086.C SOSIP rows, text paragraph 67 gives this KD for BG505 SOSIP.664
[8] = molecular target: 1086.c gp160 wt on pseudo-typed virus (HIV-1 clade C, 1086.c); experiment: cell-based or functional assay
[9] = molecular target: HIV-1 Env 1086.C D7gp120 envelope glycoprotein (HIV-1 clade C, 1086.c); experiment: BLI, antibody on anti-human Fc biosensor, Env in solution, global fit
[10] = molecular target: HIV-1 Env 1086.C gp140C envelope glycoprotein (HIV-1 clade C, 1086.c); experiment: as above
[11] = molecular target: clade C HIV-1 1086.c ENV SOSIP trimer (HIV-1 clade C, 1086.c); experiment: as above; remark: listed apart in the source
[12] = molecular target: HIV-1 Env 1086.C D7gp120 envelope glycoprotein (HIV-1 clade C, 1086.c); experiment: BLI, antibody on anti-human Fc biosensor, Env protein as analyte
[13] = molecular target: HIV-1 Env 1086.C gp140C envelope glycoprotein (HIV-1 clade C, 1086.c); experiment: as above
[14] = molecular target: clade C HIV-1 1086.c ENV SOSIP trimer (HIV-1 clade C, 1086.c); experiment: as above; remark: listed apart in the source
[15] = molecular target: clade C HIV-1 1086.c ENV SOSIP trimer (HIV-1 clade C, 1086.c); experiment: BLI, antibody on anti-human Fc biosensor, Env protein as analyte; text paragraph 65 prints 0.12 nM
[16] = molecular target: BG505 SOSIP.664 envelope trimer protein (HIV-1 clade A, BG505); experiment: BLI, antibody on anti-human Fc biosensor, Env protein as analyte; text paragraph 65 prints <1.03x10^-3 nM

| Substance | neutralisation IC50, pseudo-typed virus on TZM-bl cells [1] [µg/mL] | Kd [2] [pM] | Kd [3] [pM] | koff [4] [s⁻¹] | kon [4] [M⁻¹ s⁻¹] | koff [5] [s⁻¹] | kon [5] [M⁻¹ s⁻¹] | neutralisation IC50, pseudo-typed virus on TZM-bl cells [6] [µg/mL] | other results |
| --- | --- | --- | --- | --- | --- | --- | --- | --- | --- |
| 2G12 (antibody) | 0.29 | < 1 | 70 | 4.83e-08 | 254000 | 5.61e-05 | 821000 | – | – |
| 3BNC117 (antibody) | 0.007 | 1.08 | 300 | < 1e-07 | 44700 | 3.92e-05 | 132000 | 0.21 | – |
| 10-1074 (antibody) | 0.003 | < 1 | – | < 1e-07 | 48600 | – | – | – | – |
| 35O22 (antibody) | – | 1.3 | – | – | – | – | – | > 4 | Kd [7]: 1.3 pM |
| 3869 (antibody) | – | 2 | < 1 | 4.83e-08 | 24200 | < 1e-07 | 2.56e+06 | > 4 | – |
| CD4-IgG2 (Fc fusion) | > 4 | – | – | – | – | – | – | – | neutralization of pseudotyped virus in TZM-bl cells, IC50 [8]: 1.72 µg/mL |
| CH58 (antibody) | – | – | < 1 | – | – | – | 680000 | – | Kd [9]: 9310 pM; Kd [10]: 220 pM; Kd [11]: < 1.03 pM; koff [12]: 0.0012 s⁻¹; kon [12]: 129000 M⁻¹ s⁻¹; koff [13]: 1.25e-05 s⁻¹; kon [13]: 56800 M⁻¹ s⁻¹; koff [14]: < 1e-07 s⁻¹; kon [14]: 680000 M⁻¹ s⁻¹ |
| CH59 (antibody) | – | – | – | – | – | – | – | > 4 | Kd [9]: 1810 pM; Kd [10]: 1.2 pM; Kd [11]: < 1 pM; koff [12]: 0.000105 s⁻¹; kon [12]: 57900 M⁻¹ s⁻¹; koff [13]: < 1e-07 s⁻¹; kon [13]: 10200 M⁻¹ s⁻¹; koff [14]: < 1e-07 s⁻¹; kon [14]: 63700 M⁻¹ s⁻¹ |
| CH106 (antibody) | > 4 | 3.51 | 5330 | < 1e-07 | 13700 | 6.64e-05 | 12500 | 3.63 | – |
| F105 (antibody) | – | 12.9 | 1.72 | < 1e-07 | 3750 | < 1e-07 | 30400 | – | – |
| HJ16 (antibody) | > 4 | 1290 | 3590 | 0.000128 | 99500 | 0.000151 | 42200 | 3.82 | – |
| IgG1 b12 (antibody) | – | – | 120 | – | – | 9.85e-05 | 811000 | > 4 | Kd [15]: 122 pM |
| N6 (antibody) | 0.031 | 1.14 | < 1 | < 1e-07 | 42200 | < 1e-07 | 52300 | 0.023 | – |
| PG09 (antibody) | 0.02 | 2100 | 12400 | 0.0001 | 47600 | 0.000475 | 38200 | – | – |
| PG16 (antibody) | 0.011 | 7350 | – | 0.000358 | 48600 | – | – | – | – |
| PGT121 (antibody) | 0.003 | 150 | 170 | 5.35e-06 | 34900 | 7.93e-05 | 460000 | – | neutralization of pseudotyped virus in TZM-bl cells, IC50 [8]: < 0.001 µg/mL |
| PGT126 (antibody) | 0.006 | < 1 | 370 | < 1e-07 | 268000 | 0.000462 | 1.26e+06 | – | – |
| PGT128 (antibody) | 0.003 | < 1 | 350 | < 1e-07 | 78600 | 0.000414 | 1.18e+06 | – | – |
| PGT145 (antibody) | < 0.001 | 2570 | 1220 | 0.000482 | 187000 | 0.00194 | 1.59e+06 | – | – |
| VRC01 (antibody) | 0.06 | 2.1 | < 1 | < 1e-07 | 23200 | < 1e-07 | 72800 | 0.49 | – |
| VRC03 (antibody) | 2.83 | < 1.03 | – | < 1e-07 | 78600 | – | – | – | Kd [16]: < 1 pM |
| VRC-CH31 (antibody) | 0.011 | – | – | – | – | – | – | 2.16 | – |
